Reference: paper PMC5101480 (Scientific Reports, 2016)
Entries after “also recorded” stand apart in the source; their conditions may differ.

How the values were obtained:
[1] = biological target: T1, TPR domain of SGTA (SGTA_TPR) (Homo sapiens, UniProt O43765); test: Size exclusion chromatography (SEC) complex formation with SGTA_TPR; assay type: binding; details: mixed in 1:1 molar ratio
T1 construct: thioredoxin A (TxA) fusion (N, cleaved yes); hexahistidine tag (N, cleaved yes); made in house; host or cells: E. coli BL21(DE3) Rosetta
T1 sequence (O43765 84-211): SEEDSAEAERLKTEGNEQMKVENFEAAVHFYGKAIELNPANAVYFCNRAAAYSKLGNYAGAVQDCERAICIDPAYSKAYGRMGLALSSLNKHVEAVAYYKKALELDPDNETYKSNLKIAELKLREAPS
Procedure: In order to understand molecular details underlying the interaction between SGTA and Rpn13, solution NMR studies were carried out on excised domains of SGTA and Rpn13 guided by earlier mapping studies. Reciprocal chemical shift perturbation (CSP) experiments were performed by titrating unlabelled Rpn13 C-terminal domain (residues 260–407; hereafter described as Rpn13_260-407) into ^15N-labelled TPR domain of SGTA (residues 84–211; hereafter referred to as SGTA_TPR) and vice versa. Assignments of backbone amide resonances were obtained from the BMRB (accession numbers 5709 and 17286, for SGTA_TPR and Rpn13_260-407, respectively). The ^1H-^15N HSQC spectra of both SGTA_TPR and Rpn13_260-407 show binding in a fast exchange regimen (Figs 1A and 2A). […] Binding was further confirmed by size-exclusion chromatography (SEC) and isothermal titration calorimetry (ITC) (Fig. 1C,D). […]
SGTA_TPR and Rpn13 plasmids were transformed into E. coli BL21(DE3) Rosetta cells, with protein expression induced by adding 0.3–0.5 mM isopropyl-β-D-thiogalactopyranoside (IPTG) to bacterial cultures in LB media at OD600 ≈ 0.8, followed by overnight incubation at 18 °C. […] Proteins were concentrated using Vivaspin concentrators (Sartorius Stedin) and sample purity and homogeneity was assessed by SDS-PAGE, mass spectrometry and NMR. […]

[2] = test system: K160E/R164E double mutant SGTA_TPR; test: Reciprocal NMR CSP titration, Rpn13_260-407 with K160E/R164E double mutant SGTA_TPR; assay type: binding, human; details: up to 6-fold molar excess of Rpn13_260-407 and vice versa; pH 6.0, 25 °C
From the text: The ‘two-carboxylate clamp’ mode of binding is a well-characterised mechanism of molecular recognition by TPR domains in the context of their binding to the conserved C-terminal IEEVD and MEEVD motifs of Hsp70 and Hsp90 chaperones, respectively. It is known that conserved residues present on the concave surface of the TPR domain form a positively charged region within this groove that clamp, the two carboxylate groups of the terminal aspartate (Fig. 3D). […]
Protein samples at concentrations between 300 μM and 1 mM were prepared in 10% D2O (Sigma Aldrich), 10 mM potassium phosphate pH 6.0, 100 mM NaCl and 250 μM TCEP buffer (with 10 μM DSS for proton chemical shift referencing). […] All NMR spectra were processed with TopSpin and analysed with CcpNMR Analysis[35]. Proteins used for NMR titrations were dialysed overnight against the same buffer (10 mM potassium phosphate pH 6.0, 100 mM NaCl and 250 μM TCEP) and mixed in different molar ratios, with the concentration of the labelled protein maintained constant. ^1H-^15N HSQC experiments were recorded for each titration point at 25 °C. Chemical shift perturbation (CSP) values were calculated for each amide signal using the following formula: […]

B1: Rpn13_260-407: Rpn13 C-terminal domain (residues 260–407), human, expressed in E. coli (protein)
chain: QPIQLSDLQSILATMNVPAGPAGGQQVDLASVLTPEIMAPILANADVQERLLPYLPSGESLPQTADEIQNTLTSPQFQQALGMFSAALASGQLGPLMCQFGLPAEAVEAANKGDVEAFAKAMQNNAKPEQKEGDTKDKKDEEEDMSLD
modifications: left off: thioredoxin A (TxA), N-terminal, cleaved | His6, N-terminal, cleaved
notes: Rpn13 C-terminal domain (residues 260–407), human, expressed in E. coli
[1]
  SEC complex formation with SGTA_TPR: clearly indicative of a stable complex; also recorded: formation of a stable complex
[2]
  CSP with K160E/R164E SGTA_TPR, result in words: disruption of the SGTA_TPR-Rpn13_260-407 interaction
